Test results: patent US20220357348A1 (FARON PHARMACEUTICALS, published 2022)

Target: T1, human Clever-1 (Common Lymphatic Endothelial and Vascular Endothelial Receptor-1) expressed on KG-1 cells (human, UniProt Q9NY15 26-2570)
T1 construct: whole, on cells; also called Stabilin-1
Test: flow cytometry on KG-1 cells, 4 C, titration 10-0.014 µg/mL, AlexaFluor 647 anti-HuIgG secondary
Method: Excess primary antibody was removed and the cells were then incubated for a further 30 minutes at 4° C. with either an AlexaFluor 647 labelled anti-HulgG or PE labelled anti-rat IgG antibody (ThermoFisher Scientific, Loughborough, UK) at 10 μg/mL. The unbound secondary antibody was washed away, and the cells fixed with BD CellFix (BD Biosciences, Oxford, UK) before analysis. Samples were acquired on an Attune NxT focussing cytometer equipped with a blue and red laser (ThermoFisher Scientific, Loughborough, UK) using the BL2 and RL1 channels for PE and AlexaFluor 647 dyes, respectively. The MFI values were plotted against the antibody concentration. […] The MFI in the absence of primary antibody is represented by a dotted line.

T1 sequence (Q9NY15 26-2570): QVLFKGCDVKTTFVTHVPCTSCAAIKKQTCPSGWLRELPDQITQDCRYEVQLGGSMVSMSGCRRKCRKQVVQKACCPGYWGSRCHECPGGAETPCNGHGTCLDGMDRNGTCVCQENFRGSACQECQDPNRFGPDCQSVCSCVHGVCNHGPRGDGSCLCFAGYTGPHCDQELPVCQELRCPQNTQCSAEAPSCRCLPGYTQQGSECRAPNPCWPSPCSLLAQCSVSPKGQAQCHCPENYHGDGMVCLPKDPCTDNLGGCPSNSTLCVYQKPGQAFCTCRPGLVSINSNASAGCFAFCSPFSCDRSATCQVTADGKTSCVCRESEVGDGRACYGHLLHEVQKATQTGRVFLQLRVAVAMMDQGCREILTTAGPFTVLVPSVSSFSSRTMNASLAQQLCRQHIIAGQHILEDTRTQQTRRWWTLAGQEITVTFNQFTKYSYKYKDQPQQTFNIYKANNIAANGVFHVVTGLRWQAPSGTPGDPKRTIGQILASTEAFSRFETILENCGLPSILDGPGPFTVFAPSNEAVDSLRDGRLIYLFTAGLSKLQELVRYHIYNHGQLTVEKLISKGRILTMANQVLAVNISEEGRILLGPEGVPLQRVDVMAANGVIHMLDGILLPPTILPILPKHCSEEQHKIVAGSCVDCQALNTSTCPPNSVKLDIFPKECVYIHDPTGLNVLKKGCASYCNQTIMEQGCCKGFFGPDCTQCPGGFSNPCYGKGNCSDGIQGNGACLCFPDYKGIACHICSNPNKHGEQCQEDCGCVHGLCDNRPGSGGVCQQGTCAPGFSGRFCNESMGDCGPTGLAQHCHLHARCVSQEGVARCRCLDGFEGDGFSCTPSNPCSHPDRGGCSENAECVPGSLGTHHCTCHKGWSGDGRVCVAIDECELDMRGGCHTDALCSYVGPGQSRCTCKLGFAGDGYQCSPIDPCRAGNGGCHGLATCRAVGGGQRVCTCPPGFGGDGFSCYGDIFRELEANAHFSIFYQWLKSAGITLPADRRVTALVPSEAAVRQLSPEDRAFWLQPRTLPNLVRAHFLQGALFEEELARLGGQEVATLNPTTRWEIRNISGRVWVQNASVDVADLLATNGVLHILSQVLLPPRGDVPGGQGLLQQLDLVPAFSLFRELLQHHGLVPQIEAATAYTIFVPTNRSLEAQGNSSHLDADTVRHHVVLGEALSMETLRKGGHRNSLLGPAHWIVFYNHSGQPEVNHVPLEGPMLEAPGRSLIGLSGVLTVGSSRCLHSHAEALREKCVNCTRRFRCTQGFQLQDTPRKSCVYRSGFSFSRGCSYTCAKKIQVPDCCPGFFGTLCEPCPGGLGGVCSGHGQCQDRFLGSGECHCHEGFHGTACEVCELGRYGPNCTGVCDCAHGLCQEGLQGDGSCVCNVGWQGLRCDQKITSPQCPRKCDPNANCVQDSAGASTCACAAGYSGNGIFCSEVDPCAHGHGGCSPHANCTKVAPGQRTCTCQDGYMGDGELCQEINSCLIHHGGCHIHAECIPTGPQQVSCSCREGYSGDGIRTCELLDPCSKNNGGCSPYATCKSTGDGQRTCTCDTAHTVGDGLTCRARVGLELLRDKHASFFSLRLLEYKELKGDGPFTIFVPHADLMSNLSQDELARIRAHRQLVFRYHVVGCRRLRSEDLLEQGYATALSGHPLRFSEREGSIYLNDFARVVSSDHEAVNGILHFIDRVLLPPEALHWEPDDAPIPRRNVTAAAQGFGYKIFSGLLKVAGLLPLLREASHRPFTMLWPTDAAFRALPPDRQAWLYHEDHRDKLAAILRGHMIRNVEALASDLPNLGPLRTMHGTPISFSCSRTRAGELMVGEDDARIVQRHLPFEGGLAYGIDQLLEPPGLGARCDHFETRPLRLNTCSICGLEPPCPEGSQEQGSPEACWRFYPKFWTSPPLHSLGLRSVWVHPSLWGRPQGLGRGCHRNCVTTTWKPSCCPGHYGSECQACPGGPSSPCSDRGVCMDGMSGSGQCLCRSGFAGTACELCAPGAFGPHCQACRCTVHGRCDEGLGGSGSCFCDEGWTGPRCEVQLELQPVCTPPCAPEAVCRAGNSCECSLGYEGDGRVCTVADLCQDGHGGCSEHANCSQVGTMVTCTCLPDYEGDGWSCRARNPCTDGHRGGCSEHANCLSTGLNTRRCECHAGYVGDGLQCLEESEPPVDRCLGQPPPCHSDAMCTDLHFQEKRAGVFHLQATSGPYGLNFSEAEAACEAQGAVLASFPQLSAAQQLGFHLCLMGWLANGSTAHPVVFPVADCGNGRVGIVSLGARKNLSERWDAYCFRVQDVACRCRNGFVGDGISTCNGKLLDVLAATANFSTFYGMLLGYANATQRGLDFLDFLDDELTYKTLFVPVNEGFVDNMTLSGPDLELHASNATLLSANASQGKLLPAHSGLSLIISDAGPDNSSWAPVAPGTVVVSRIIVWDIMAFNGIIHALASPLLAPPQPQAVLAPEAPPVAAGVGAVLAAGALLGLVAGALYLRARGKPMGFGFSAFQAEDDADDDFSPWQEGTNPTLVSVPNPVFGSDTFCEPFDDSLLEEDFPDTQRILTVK

binding result: binds
B1: humanized anti-Clever-1 antibody FP-1305 (DSM ACC3361) (antibody, human IgG4 S228P, kappa, V domains shown)
VH: QVTLKESGPTLVKPTQTLTLTCSFSGFSLSTSGMGIGWIRQPPGKALEWLAHIWWDDDKRYNPALKSRLTISKDTSKNQVVLTMTNMDPVDTATYYCARHYGYDPYYAMDYWGQGTLVTVSS
VL: EIVLTQSPGTLSLSPGERATLSCTASSSVSSSYLHWYQQKPGKAPKLLIYRTSNLASGVPSRFSGSGSGTDYTLTISSLQPEDFATYYCHQYHRSPPTFGQGTKLEIKR
notes: Its isotype control is HuIgG4 S241P L248E; also called bexmarilimab
